Article PMC3574117

Assays:
[1] = target: PhaF phasin from Pseudomonas putida KT2440 (Pseudomonas putida KT2440); assay: AUC; sedimentation equilibrium, short columns, 10000 and 16000 rpm, 20 mM sodium phosphate pH 7.0, 150 mM NaCl, 20 °C; single-species fit
[2] = target: PhaF phasin from Pseudomonas putida KT2440 (Pseudomonas putida KT2440); assay: AUC; sedimentation velocity; 38 µM PhaF (3.8 to 38 µM, data not shown) in 20 mM sodium phosphate pH 7.0, 150 mM NaCl, 48000 rpm, 20 °C; c(s) analysis

PhaF phasin from Pseudomonas putida KT2440 (natural protein)
stoichiometry N [1]: 4
stoichiometry N [2]: 4
